Assay results reported in article PMC4788497 (Methods in molecular biology (Clifton, N.J.), 2014).

Target: the molecule itself
Experiment: SEC

B1: DGCR8 NC1 (amino acid residues 276-751 of human DGCR8), Fe(III) heme-bound dimer (domain or fragment, UniProt Q8WYQ5 276-751, looked up)
chain: DGETSVQPMMTKIKTVLKSRGRPPTEPLPDGWIMTFHNSGVPVYLHRESRVVTWSRPYFLGTGSIRKHDPPLSSIPCLHYKKMKDNEEREQSSDLTPSGDVSPVKPLSRSAELEFPLDEPDSMGADPGPPDEKDPLGAEAAPGALGQVKAKVEVCKDESVDLEEFRSYLEKRFDFEQVTVKKFRTWAERRQFNREMKRKQAESERPILPANQKLITLSVQDAPTKKEFVINPNGKSEVCILHEYMQRVLKVRPVYNFFECENPSEPFGASVTIDGVTYGSGTASSKKLAKNKAARATLEILIPDFVKQTSEEKPKDSEELEYFNHISIEDSRVYELTSKAGLLSPYQILHECLKRNHGMGDTSIKFEVVPGKNQKSEYVMACGKHTVRGWCKNKRVGKQLASQKILQLLHPHVKNWGSLLRMYGRESSKMVKQETSDKSVIELQQYAKKNKPNLHILSKLQEEMKRLAEEREETRK
binding result: binds
